This is an account of results in patent publication US20240132599A1 (GAMMADELTA THERAPEUTICS, published 2024).

Experiment [1] addresses T1, L1 (DV1-GV4), recombinant soluble human Vδ1/Vγ4 γδ TCR heterodimer (human).
T1 construct: Biotinylated in the DELFIA ranking assay; also called human TRDV1; human Vδ1 antigen
The experiment is described as follows: SPR. A general note: SPR reads the build-up and loss of mass on a sensor chip optically.

The target in experiment [2] is T2, cyno antigen DV1/GV77, recombinant cynomolgus Vδ1 γδ TCR heterodimer (cynomolgus monkey).
T2 construct: also called cyno TRDV1; Cyno DV1-77; not shown: Delta-chain CDR3/J and constant part, the GV77 gamma chain, and any tags
The experiment is described as follows: SPR.

By Kd is commonly meant the free concentration of one partner at which half of the binding sites on the other are occupied at equilibrium, for simple one-to-one binding.

T1 sequence (main, as listed by the source): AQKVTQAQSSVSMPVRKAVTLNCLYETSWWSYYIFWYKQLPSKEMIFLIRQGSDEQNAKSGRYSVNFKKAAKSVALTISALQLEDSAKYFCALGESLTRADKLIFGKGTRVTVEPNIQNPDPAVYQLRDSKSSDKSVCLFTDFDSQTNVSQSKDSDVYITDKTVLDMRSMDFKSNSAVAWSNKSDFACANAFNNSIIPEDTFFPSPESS
T2 sequence (delta, as listed by the source limits assumed): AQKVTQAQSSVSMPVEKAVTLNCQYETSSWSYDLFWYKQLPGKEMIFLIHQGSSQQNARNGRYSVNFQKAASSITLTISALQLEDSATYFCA

B1: ADT1-4-8 (antibody, IgG1, V domains shown)
VH: EVQLQQSGPGLVKPSQTLSLTCAISGDSVSSKSAAWNWIRQSPSRGLEWLGRTYYRSKWSTDYAASVKSRITINPDTSKNQLSLQLNSVTPEDTAVYYCARSWVGYVDVWGQGTLVTVSS
VL: DIQMTQSPPALSASVGDRVTITCRASQDINDWLAWYQHKPGKAPKLLIYDASSLESGVPLRFSGSGSGTEFTLTISSLQPDDFATYYCQQKYSAPQVTFGQGTRLEIK
notes: IgG1
Take B1: the figures for the Kd in experiment [1] and in experiment [2] were 0.541 nM and 15.1 nM, respectively.
